Reference: the DeepSol protein solubility set

Assay: soluble on expression in E. coli; label from the status in PepcDB or PDB records

For “MAHHHHHHMMSTASKILAILREAMRKRSLSALIIPSSDPHNSEYVKDEYKCRAYITNFKGSAGTCLITMNEAYLWTDGRYWLEASQSLYPEWTLMKDGHPDVPRLENWIQLNLGSDVLVGMNNHLSTVAEWERRRKMFNLVSVPEMVQPLMPLVENPVSKLYARPEEFCGMRCGEKAAALMEEMERQKCDALVLSALDEVAWLTNLRGSDVPFNPVFYAYGVVRCCSPPKVHLFVDAVMSEEQGPSLELHPYTALESYLRTIPAGTTFLVDEYQTSQWLFTLLESLGMRIKGVACGPAQKLKAVKNAVEIEGFRRCHVRDGVALTRYLAWLHDTVAVKGDTSVTEYSAAQRLEDFRREGEHFVQLSFSTISSVGPNAAIVHYVAPREGSATIVPDQLYLVDSGAQYLDGTTDVTRTVCFREPGDKEREAYTLVLKGNLALHSAVWPTGTSGHSLDVLARAALWKCGLNYAHGTGHGVGSFLNVHEGPQGIGLRPTPTEATLAAGMVMSNEPGYYKDGEFGIRIENLELVVDVATKHSKKGFLTFDTLTMVPLCRELIDVSALTEAERLQVNAYQQTVRETLLPHLRRCNDSCAIAYLEHHTATL”, the “soluble on expression in E. coli” value was “soluble”.

For “MGKKQHQKDKLYLTTSEWKSIGGHKDDTGTRLQRAQFKRLPINHCSLSLLPFEDPVCARSGEIFDLTAIVPYLKKHGKNPCTGKPLVAKDLIHLKFDKGEDGKFRCPVTFRTFTDHSHILAIATSGNVYSHEAVQELNLKRNHLKDLLTDVPFTRADIIDLQDPNHLEKFNMEQFLHVKLDLKTSEEIKKEKDAMKDPKFYIRRMNNACKSVLDQLDKEYVPKKSSTETDETADEINAAHYSQGKVAAGFTSTVMAPVTSNKAAVLDNDTVRYSRVKKNAFVRLVTNFGPLNLELFAPKVPKACENFITHCSNGYYNNTKFHRLIKNFMLQGGDPTGTGHGGESIWDKPFSDEFISGFSHDARGVLSMANKGSNTNGSQFFITFRPCKYLDRKHTIFGRLVGGQDTLTTIEKLETEEGTDVPMVSVVIMRAEVFVDPFEEAEKEVQAERAEILKKTSKDAASLANKKAKETATKPEAVGTGVGKYMKSAAAVNKRQGKMEDVPLEAAKKTKFARAGLGDFSKW”, the “soluble on expression in E. coli” value was “not soluble”.

For “MGHHHHHHSNKIERIIARLQRRIAEGQPEEQYEAAQETRLVAARYSKQGNWAAAVDILASVSQTLLRSGQGGSGGDLAVLLVDTFRQAGQRVDGASRGKLLGCLRLFQPGEPVRKRFVKEMIDWSKKFGDYPAGDPELHHVVGTLYVEEGEFEAAEKHLVLGTKESPEVLARMEYEWYKQDESHTAPLYCARAVLPYLLVANVRAANTAYRIFTSALVEDNKGLTVQNIGSQSAELRIFPSLPLLNFISMLLLSVQKGSPDLFRQLKSKYEANLNELNGIWDTALELIAEMYFGIQRPRQSNPLLDMMGSLFGGGGGAPSKAALRRIDTPAAEGLD”, the “soluble on expression in E. coli” value was “soluble”.

In the case of “MGSVSKANVPKIDVSPLFGDDQAAKMRVAQQIDAASRDTGFFYAVNHGINVQRLSQKTKEFHMSITPEEKWDLAIRAYNKEHQDQVRAGYYLSIPGKKAVESFCYLNPNFTPDHPRIQAKTPTHEVNVWPDETKHPGFQDFAEQYYWDVFGLSSALLKGYALALGKEENFFARHFKPDDTLASVVLIRYPYLDPYPEAAIKTAADGTKLSFEWHEDVSLITVLYQSNVQNLQVETAAGYQDIEADDTGYLINCGSYMAHLTNNYYKAPIHRVKWVNAERQSLPFFVNLGYDSVIDPFDPREPNGKSDREPLSYGDYLQNGLVSLINKNGQT”, the “soluble on expression in E. coli” value is reported as “soluble”.

With “MGSDKIHHHHHHMDHRQTFLSRYDTAACKAAHEIISCYSTSFGLATKLLRGRIRTDISNLYAMVRIADEIVDGTAQMAGLEPNAVSQLLDDYEAAVLAAPTQRFHADPILHAWALSARRCKFKTEHVQAFFTSMRNDLHKHNYEAAEFNEYVYGSAEVIGLMCLDAFLVEQHPRPHERTMMEHGARSLGSAFQKINFLRDLEEDTHVLGRNYFPQLTGELTDATKALLVADIRTDLAAAYRCIPLLPFDARVGVQAAADLFTALTDRIQEASAVEVTHTRIRIPKAQKIAIITRAPWRALHG” the “soluble on expression in E. coli” value was “not soluble”.

For “MAHHHHHHMSSYRSDVDPFKEIRVLPREAAQLRHHLSRINHALQTKYFVAAELSELALQPDRSDEFLALYKAEIYRVVAKLNMNAKKQYTVTVDPLRLTTGFEFKRGADRKDNLGTAVTAATVEGLTSPDVHAKWTASLVETSRLLAQQHAINPNCQALSSALQSTPSSQQTQGLNGGGGAAAVGSDVIGDASTCAIDSDVRKANKESFLFSTPPEFAGFAPSGASPGAP”, the “soluble on expression in E. coli” value was “not soluble”.

In the case of “NPMSVLLGKAEQLNLLYDKYWDDSMRLNPLQATLQGDAYHGDRMPNFLSAEFRKQHHDFIEKWLKKVEMVGADGLDGQAFISYQIFVRDARNSLHAERYPNWMLPINQFYNIANVAVVLGSGNGAQPFNTVQDYDNWAHRSLGIPALFNQAIVNMRLGMKSGVVQPKVLMEKVIPQLDSIIKPTAEETLFWVPIRNMSVTFSKENRQRITAEYKSIIEYRLLPAYRALRNFIATEYLPVCRDSVGLSALPGGASWYAYTVRQSTTTNMTPEQIHQLGLKEVERLQAEIQSVMRQLNFNGSMQKFFSFMQNNEYFTFGSEKEMLAYYRDLRTRVEARVPALFSLVPKAGFEILPVESFRAPSAAAGSYMPPSSNRRHNGVFYANTNDLSSRRTWNAEKLFLHQGIPGYHFQLGLQQELRNLPKFRRLGGETAFIEGWGLYAESLGKELGLYQDAYNYFGYLQDALSRAIRLVVDTGLHTKGWTRAQVVDYIVENSATSPIEAEAEVDRYIAIPGQALAYKVGELKIHQLRQYAQLTLGPMFDLREFHAEILKDGSVPLDILQQKIERWIAVK”, the “soluble on expression in E. coli” value is reported as “not soluble”.

In the case of “MKIKPVKVESIENPKRFLNSRLLTKIEVEEAIEKALKQLYINIDYFGEEYPTPATFNNIYKVMDNTEWTNGFWTGCLWLAYEYNQDKKLKNIAHKNVLSFLNRINNRIALDHHDLGFLYTPSCTAEYRINGDVKALEATIKAADKLMERYQEKGGFIQAWGELGYKEHYRLIIDCLLNIQLLFFAYEQTGDEKYRQVAVNHFYASANNVVRDDSSAFHTFYFDPETGEPLKGVTRQGYSDESSWARGQAWGIYGIPLSYRKMKDYQQIILFKGMTNYFLNRLPEDKVSYWDLIFTDGSGQPRDTSATATAVCGIHEMLKYLPEVDPDKETYKYAMHTMLRSLIEQYSNNELIAGRPLLLHGVYSWHSGKGVDEGNIWGDYYYLEALIRFYKDWELYW”, the “soluble on expression in E. coli” value is reported as “soluble”.

In the case of “SLTPLSAITVRSMEGPPTVQQQSPSVIRQSPTQRRKTSTTSSTSRAPPPTNPDASSSSSSFAVPTIHFKESPFYKIQRLIPELVMNVEVTGGRGMCSAKFKLSKADYNLLSNPNSKHRLYLFSGMINPLGSRGNEPIQFPFPNELRCNNVQIKDNIRGFKSKPGTAKPADLTPHLKPYTQQNNVELIYAFTTKEYKLFGYIVEMITPEQLLEKVLQHPKIIKQATLLYLKKTLREDEEMGLTTTSTIMSLQCPISYTRMKYPSKSINCKHLQCFDALWFLHSQLQIPTWQCPVCQIDIALENLAISEFVDDILQNCQKNVEQVELTSDGKWTAILEDDDDSDSDSNDGSRSPEKGTLGEGAAALEHHHHHH”, the “soluble on expression in E. coli” value is reported as “soluble”.

In the case of “MAHHHHHHMCLGRSSGSALDTPLGAWWGGKRVAEIPPCPAESVTFVQLIARHFSPFVLRQHLPGAQDGLVTSSVQTREVAHKPVGCDVAVLVVVKRGAQVLRLPFARPHAKIPQKINKKLVRHALLTTRPLLLLQLKELSQCLNDRLWAAPTTQGALHTQKHAILARVVRVTPQHRRHRTTKAKQQQQQKQRNCSLVKSAHKT”, the “soluble on expression in E. coli” value is reported as “not soluble”.

With “MKKCRICGKKAIIYMPHHRLALCREHFVEWFEKYTERTIKEFKMFTKKDKVLVAISGGKDSLALWHVLRKLGYEADGLYINLGIGEYSEKSKEKVLKFAEKINGKAIIVDLKEELAGIPELVKITSREACSVCGLVKRYNFNKVAKEHGYNVIATGHNLDDEASALLANVLNWNEKYLGRKYPVLEEEAGFVRKVKPFCKFTEKETALYALLNGIDFIEEECPFSEDATSVFYKKILNEIEERSPGTKLRFYLDYLRKIYPKFRKEEEKKELQPCKVCGEPTVGEICPVCRLREKVEASSG” the “soluble on expression in E. coli” value was “soluble”.

With “MGHHHHHHSHIHRIDSTEVIYQPRRKRAKLIGKYLMGDLLGEGSYGKVKEVLDSETLCRRAVKILKKKKLRRIPNGEANVKKEIQLLRRLRHKNVIQLVDVLYNEEKQKMYMVMEYCVCGMQEMLDSVPEKRFPVCQAHGYFCQLIDGLEYLHSQGIVHKDIKPGNLLLTTGGTLKISDLGVAEALHPFAADDTC” the “soluble on expression in E. coli” value was “not soluble”.

With “MGSSHHHHHHSSGRENLYFQGMKVVFLICNPAAGGGRAGKIWNRVEDLLKKHGIDHKFAFTERPGHAMEISKKAFKEGYRRIAAFGGDGTVNEMVNGIFLNGYDLREVVFGWIPFGSGKDWARTIGVPLEIEEAIKMLKDGKEFVQDLGVGEYEKASGEIEKRAFVNVAGLFFDGFVTYRTNLLKRKNRVSYFSRIFSSIIEYDPPTARIQIDEKVWEKRVFSMNVGICKYNGGGMNQLPHAVPDDGLLAVTVINDIGKLRILANLHRVFNGKLLEHPGVEGYQAKKVVVEFQRDEPVEFDGESFWAKKIFFSIIPGVIRVLVKK” the “soluble on expression in E. coli” value was “soluble”.

In the case of “MAHHHHHHMGTLEAQTQGPGSMDKTLDKQVAIVTGASRGIGRAIALELARRGAMVIGTATTEAGAEGIGAAFKQAGLEGRGAVLNVNDATAVDALVESTLKEFGALNVLVNNAGITQDQLAMRMKDDEWDAVIDTNLKAVFRLSRAVLRPMMKARGGRIVNITSVVGSAGNPGQVNYAAAKAGVAGMTRALAREIGSRGITVNCVAPGFIDTDMTKGLPQEQQTALKTQIPLGRLGSPEDIAHAVAFLASPQAGYITGTTLHVNGGMFMS”, the “soluble on expression in E. coli” value is reported as “soluble”.

With “MNEEVVMKFLHTSDWHVGRTLNGWSLLEEQEWAFQQIVDLAISEKVDGVIISGDLYDRAVPPVDAIKLFNKTLARLVLEEQIPVYAISGNHDGAERLHFGRDFFQHQGLHLSTRLEEAFEPIELENCQIFLLPFIDPIDARIYYKDDEGKEIQGIGDALTYILEDMEKAFDPDKAHVLVTHFAVSKKDDSDGQGLRELMLSETSNTVGGLTNVTSDLFKSFDYVALGHIHTRFASPTKRVQYSGSPVAFNVKEAKRKEEKGVYILELDASGDMSQTFHT” the “soluble on expression in E. coli” value was “not soluble”.

In the case of “AVREEIAGALYLGHSEGVVEKEDRDRILGALDLAERTVEEIMLHRSNIVMLDADAEPETILEHCLQSPHTRLPVYRGEPENIIGVVHAKDLFRAMYAQVGGSEGHTARLKDFDISRVANAPYFVPETTTLDDQMRAFLRMRSHFALVVDEYGSLRGLITLEDILEEIVGEIT”, the “soluble on expression in E. coli” value is reported as “not soluble”.

For “MTRVRDLMSTHIVHCTPLDNVYEAAVKMKEESIGLIPVVENEQVVGLVTDRDLVVRGIAEKHPGSNKITNVMTTNIISVSPNDSIEKATELMAQHQIRRLPVVDSGQLIGMLALGDLAIRESADDQAGFALSEISERTE”, the “soluble on expression in E. coli” value was “not soluble”.

For “MVKKVKGRRYEGSIEQRSKNSWRMRVTVGYDYKGTPIRADRTTRTKNERERERELRNFITELEQNGYTAPARMTFKAFVENEYMPKHAQNNLEVKTWTEYYKSIVARAYPAFGGVQMDKITTLHIVNLVAKLQKPGARLDVKPTDSDEKKNKPLSPRSIRNIYFAINSVFETAVEWKVIPINPAEGVRLPKTTKRPPTIYTPAEIELLNAALVKEPLRLQVMIYIALISGCREAELAALEVKHVNLIEDELTFEQTLVAKAGEGLLLKESTKNDVAGIVSIPAWLTNLIETYISNEVLDLKTEGKWANHKFLFADMEGKPIRPDSIYQRWKRFLERHNLPVIRFHDLRHTSATLLLNKGRDIKIIQERLRHKSSVTTSNIYAHVLKDTHKDAASDFENPF”, the “soluble on expression in E. coli” value was “not soluble”.

For “MDLPVMPPVKPMLAKSVAKIPPGMHYEAKWDGFRAIVYRDGDEVELGSRTGKPLTRYFPELVVAVRERLPERCVVDGEIVIARDGHLDFDALTERIHPADSRVRTLAERTPASLVAFDLLALDDASLLDVGLADRRALLVRALSGVTPPVHVAPATDDIEVARRWFEQYEGAGLDGVVAKPLDLRYRQDERAMYKIKHERTADVVVAGYRFHKSGPVVGSLLLGLYDDRGLLQHVGVSAAFTMKRRAELVAELEPLRMDDARGHPWAAWAEEAAHESARLPGAPSRWSGKKDLSWVPLRPERVVEVAYDHMENGARFRHTARFRRWRPDRTPESCTYAQLEEPVRYDLAEILGGPLEHHHHHH”, the “soluble on expression in E. coli” value was “not soluble”.
